# From the supplement of paper PMC10567573
# B1: VTI1B (parent)
# chain: NKLLLSIIILLELAILGGLVYYKF
# B2: TLE6 (parent)
# chain: FWHDTLTEQLWRIFAGVHDEKAKP
# Variants of: B1
# Test: protein stability index of a GFP-peptide fusion (GPS, HEK-293T) (PSI 1-6); higher = more stable
# Settings: c terminus: a fixed tail appended
# 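Note: lentivirally expressed fusions sorted by FACS into six bins by GFP to DsRed ratio, PSI derived from sequencing read proportions per bin multiplied by bin number.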
row,Variant,protein stability index
1,NKLLLSIIHLLELAILGGLVYYKF,2.47
2,NKLLLSIIMLLELAILGGLVYYKF,3.54

# Variants of: B2
# Test: as above
# Settings: c terminus: a fixed tail appended
row,Variant,protein stability index
1,FVHDTLTEQLWRIFAGVHDEKAKP,3.26
2,FTHDTLTEQLWRIFAGVHDEKAKP,2.35
3,FMHDTLTEQLWRIFAGVHDEKAKP,1.42
4,FQHDTLTEQLWRIFAGVHDEKAKP,2.87
5,FGHDTLTEQLWRIFAGVHDEKAKP,1.69
6,FLHDTLTEQLWRIFAGVHDEKAKP,2.54
7,FSHDTLTEQLWRIFAGVHDEKAKP,1.62
8,FHHDTLTEQLWRIFAGVHDEKAKP,3
9,FAHDTLTEQLWRIFAGVHDEKAKP,2
10,FFHDTLTEQLWRIFAGVHDEKAKP,1.9
11,FEHDTLTEQLWRIFAGVHDEKAKP,2.41
12,FIHDTLTEQLWRIFAGVHDEKAKP,2.26
13,FKHDTLTEQLWRIFAGVHDEKAKP,2.11
14,FRHDTLTEQLWRIFAGVHDEKAKP,2.46
15,FYHDTLTEQLWRIFAGVHDEKAKP,1.85
16,FNHDTLTEQLWRIFAGVHDEKAKP,2.1
17,FDHDTLTEQLWRIFAGVHDEKAKP,2.61
18,FPHDTLTEQLWRIFAGVHDEKAKP,2.16
19,FCHDTLTEQLWRIFAGVHDEKAKP,1.66
20,FWHQTLTEQLWRIFAGVHDEKAKP,2.29
21,FWHFTLTEQLWRIFAGVHDEKAKP,3.05
22,FWHRTLTEQLWRIFAGVHDEKAKP,1.58
23,FWHTTLTEQLWRIFAGVHDEKAKP,1.73

row,Variant,protein stability index
1,FWHNTLTEQLWRIFAGVHDEKAKP,1.71
2,FWHYTLTEQLWRIFAGVHDEKAKP,3.37
3,FWHETLTEQLWRIFAGVHDEKAKP,1.99
4,FWHPTLTEQLWRIFAGVHDEKAKP,2.31
5,FWHLTLTEQLWRIFAGVHDEKAKP,1.74
6,FWHHTLTEQLWRIFAGVHDEKAKP,1.8
7,FWHWTLTEQLWRIFAGVHDEKAKP,1.29
8,FWHITLTEQLWRIFAGVHDEKAKP,2.06
9,FWHKTLTEQLWRIFAGVHDEKAKP,1.76
10,FWHGTLTEQLWRIFAGVHDEKAKP,2.07
11,FWHCTLTEQLWRIFAGVHDEKAKP,1.91
12,FWHSTLTEQLWRIFAGVHDEKAKP,1.83
13,FWHVTLTEQLWRIFAGVHDEKAKP,2.09
14,FWHATLTEQLWRIFAGVHDEKAKP,1.49
15,FWHMTLTEQLWRIFAGVHDEKAKP,2.44
16,VWHDTLTEQLWRIFAGVHDEKAKP,1.8
17,DWHDTLTEQLWRIFAGVHDEKAKP,2.17
18,KWHDTLTEQLWRIFAGVHDEKAKP,2.44
19,QWHDTLTEQLWRIFAGVHDEKAKP,2.54
20,GWHDTLTEQLWRIFAGVHDEKAKP,2.32
21,AWHDTLTEQLWRIFAGVHDEKAKP,2.28
22,TWHDTLTEQLWRIFAGVHDEKAKP,2.01
23,YWHDTLTEQLWRIFAGVHDEKAKP,2.05

row,Variant,protein stability index
1,EWHDTLTEQLWRIFAGVHDEKAKP,1.81
2,MWHDTLTEQLWRIFAGVHDEKAKP,2.12
3,CWHDTLTEQLWRIFAGVHDEKAKP,2.42
4,PWHDTLTEQLWRIFAGVHDEKAKP,2.18
5,LWHDTLTEQLWRIFAGVHDEKAKP,1.93
6,IWHDTLTEQLWRIFAGVHDEKAKP,1.95
7,SWHDTLTEQLWRIFAGVHDEKAKP,1.91
8,HWHDTLTEQLWRIFAGVHDEKAKP,1.96
9,WWHDTLTEQLWRIFAGVHDEKAKP,1.82
10,NWHDTLTEQLWRIFAGVHDEKAKP,2.12
11,RWHDTLTEQLWRIFAGVHDEKAKP,2.48
12,FWHDPLTEQLWRIFAGVHDEKAKP,2.73
13,FWHDGLTEQLWRIFAGVHDEKAKP,1.46
14,FWHDQLTEQLWRIFAGVHDEKAKP,1.22
15,FWHDMLTEQLWRIFAGVHDEKAKP,1.96
16,FWHDRLTEQLWRIFAGVHDEKAKP,1.53
17,FWHDSLTEQLWRIFAGVHDEKAKP,1.98
18,FWHDNLTEQLWRIFAGVHDEKAKP,2.23
19,FWHDKLTEQLWRIFAGVHDEKAKP,2.78
20,FWHDCLTEQLWRIFAGVHDEKAKP,1.34
21,FWHDILTEQLWRIFAGVHDEKAKP,2.26
22,FWHDHLTEQLWRIFAGVHDEKAKP,2.23
23,FWHDDLTEQLWRIFAGVHDEKAKP,2.13

row,Variant,protein stability index
1,FWHDFLTEQLWRIFAGVHDEKAKP,2.25
2,FWHDELTEQLWRIFAGVHDEKAKP,1.91
3,FWHDALTEQLWRIFAGVHDEKAKP,1.25
4,FWHDLLTEQLWRIFAGVHDEKAKP,1.97
5,FWLDTLTEQLWRIFAGVHDEKAKP,1.9
6,FWTDTLTEQLWRIFAGVHDEKAKP,2.75
7,FWADTLTEQLWRIFAGVHDEKAKP,3.32
8,FWNDTLTEQLWRIFAGVHDEKAKP,2.7
9,FWQDTLTEQLWRIFAGVHDEKAKP,1.69
10,FWYDTLTEQLWRIFAGVHDEKAKP,1.91
11,FWKDTLTEQLWRIFAGVHDEKAKP,1.82
12,FWIDTLTEQLWRIFAGVHDEKAKP,2.7
13,FWGDTLTEQLWRIFAGVHDEKAKP,1.82
14,FWVDTLTEQLWRIFAGVHDEKAKP,1.65
15,FWMDTLTEQLWRIFAGVHDEKAKP,2.25
16,FWDDTLTEQLWRIFAGVHDEKAKP,2.16
17,FWSDTLTEQLWRIFAGVHDEKAKP,1.72
18,FWEDTLTEQLWRIFAGVHDEKAKP,2.47
19,FWCDTLTEQLWRIFAGVHDEKAKP,1.95
20,FWPDTLTEQLWRIFAGVHDEKAKP,2.41
21,FWRDTLTEQLWRIFAGVHDEKAKP,1.88
22,FWWDTLTEQLWRIFAGVHDEKAKP,3.07
23,FWFDTLTEQLWRIFAGVHDEKAKP,1.96
